Experimental data reported in article PMC10208570 (2023).
Numbering of substitutions follows the chain as printed. Numbers in names are those of the source. Read-outs that look alike come from different tables or passages of the source. Bridges are numbered along the chain shown (N, C = ends). Where no end group is shown, it is not given here.

T1: LptAm (E. coli), monomeric truncated variant of LptA (E. coli (ATCC 25922))
T1 chain: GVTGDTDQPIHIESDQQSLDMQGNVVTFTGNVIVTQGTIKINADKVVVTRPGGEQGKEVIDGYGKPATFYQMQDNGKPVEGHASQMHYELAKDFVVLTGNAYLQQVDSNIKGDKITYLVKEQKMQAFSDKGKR

T2: LptAm^Q62L (E. coli) (E. coli (ATCC 25922))
T2 chain: T1 chain with Q36L

T3: K. pneumoniae LptAm (K. pneumoniae (ATCC 13883))
T3 chain: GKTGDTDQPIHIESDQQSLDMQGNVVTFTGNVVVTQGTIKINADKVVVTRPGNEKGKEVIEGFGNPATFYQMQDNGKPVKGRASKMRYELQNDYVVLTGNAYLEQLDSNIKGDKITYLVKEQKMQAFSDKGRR

B1: mLptA (E. coli), LptA(25-185) E39V M47A R76A (domain or fragment)
chain: GAFAVTGDTDQPIHIVSDQQSLDAQGNVVTFTGNVIVTQGTIKINADKVVVTAPGGEQGKEVIDGYGKPATFYQMQDNGKPVEGHASQMHYELAKDFVVLTGNAYLQQVDSNIKGDKITYLVKEQKMQAFSDKGKRVTTVLVPSQLQDKNNKGQTPAQKKGN

Tests used:
Test in all cases: FP
[1] = target: T1, LptAm (E. coli), monomeric truncated …
[2] = target: T2, LptAm^Q62L (E. coli)
[3] = target: T2, LptAm^Q62L (E. coli)
[4] = target: T1, LptAm (E. coli), monomeric truncated …
[5] = target: T3, K. pneumoniae LptAm
[6] = target: K. pneumoniae LptAm^Q62L (K. pneumoniae (ATCC 13883))
[7] = target: T1, LptAm (E. coli), monomeric truncated …
[8] = target: T2, LptAm^Q62L (E. coli)
[9] = target: T3, K. pneumoniae LptAm

Binder | IC50 [1] [nM] | IC50 [2] [nM] | IC50 [3] [nM] | IC50 [4] [nM] | IC50 [5] [nM] | IC50 [6] [nM] | Ki [6] [nM] | Ki [7] [nM] | Ki [8] [nM] | Ki [9] [nM]
B1 | 213 | 102 |  |  |  |  |  |  |  | 
GSKKPVPIIYCNRRTGKCQRM [Thanatin] |  |  | 50 |  |  |  |  |  |  | 
KKPVPIIYCNRRTGKCQRM (disulfide 9-16 (inferred)) [peptide 1] |  |  | 30.4 | 6.6 | 9.6 | 20.8 | 18.2 | 1.1 | 20.5 | 0.9
